Consider one substance from patent publication US20220202901A1, “PEPTIDES IN COMBINATION WITH IMMUNE CHECKPOINT INHIBITORS FOR USE IN TREATMENT OF CANCER” (WNTRESEARCH AB, priority 2019, published 2022).

The subject of data set [1] is HCC1954 cells. Put plainly: Functional immune response assay: PBMC cytotoxicity against HCC1954 cells. It is filed as cell-based. As for the experimental part: (§1) Purpose: Examining the cytotoxic effect of Foxy-5 and an anti-PD-L1 antibody alone or in combination in a functional immune response assay with different breast cancer cell lines.
(§2) Peripheral blood mononuclear cells (PBMCs) were isolated from whole blood using Ficoll Paque based density centrifugation.
(§3) SKBR3 (low in PD L1, denoted PD L1+) or HCC1954 (high in PD L1, denoted PD L1+++) cells were stained with 0.1 mM CFSE.
(§4) Effector cells (EC), i.e. PMMCs and target cells (TC), i.e. SKBR3 or HCC1954 cells, respectively, were brought to a concentration of 2×10^5 cells/ml.
(§5) Cells were treated with and without Foxy5 (100 μM), the cells were also treated with and without pembrolizumab […].
(§6) Cells were plated at EC:TC ratios of 1:1 (first bar), 5:1 (second bar) and 10:1 (third bar) along with basal cell death controls and total cell death controls. Once plated, cells were spun down and incubated for 12 hours. After 12 hours cells were re suspended with 5 μg/ml 7AAD. Cells were then analysed on the Guava flow cytometer.
(§7) Based on staining patterns live/dead cell and immune/cancer cell differentiation can be determined and the direct cytotoxicity in terms of the cell death percentage was calculated.
Direct cytotoxicity elicited by PBMCs against the HCC1954 cell line in the presence of FOXY-5 and/or pembrolizumab relative to vehicle control. […]

Data set [2] concerns SKBR3 cells. The data set is described as follows: Functional immune response assay: PBMC cytotoxicity against SKBR3 cells. It is filed as cell-based. The settings on record: SKBR3, relative to vehicle control. Here is the method:
as §1, §2, §3, §4, §5, §6, §7
Direct cytotoxicity elicited by PBMCs against the SKBR3 cell line in the presence of FOXY-5 and/or pembrolizumab relative to vehicle control. […]

Pembrolizumab: the “direct PBMC cytotoxicity” value in data set [1] (HCC1954 (PD L1 high), relative to vehicle control, EC:TC 5:1 and 10:1 ratios) is “increased”; in data set [2] (EC:TC 10:1 ratio), “increased”. The direct cytotoxicity result in data set [1] (HCC1954, pembrolizumab added to Foxy-5 vs. single agent, ratios 1:1 and 10:1) is given as “increased”. In data set [2] (EC:TC 10:1 and 5:1 ratios), the “trastuzumab mediated ADCC” value is given as “decreased”.
